# Biological target: the molecule itself
# Test: SEC
protein,measurement,value
Cowpea chlorotic mottle virus (CCMV) coat protein (natural protein) MSTVGTGKLTRAQRRAAARKNKRNTRVVQPVIVEPIASGQGKAIKAWTGYSVSKWTASCAAAEAKVTSAITISLPNELSSERNKQLKVGRVLLWLGLLPSVSGTVKSCVTETQTTAAASFQVALAVADNSKDVVAAMYPEAFKGITLEQLTADLTIYLYSSAALTEGDVIVHLEVEHVRPTFDDSFTPVY,binding result,binds
